# Data: the RNAGym collection of RNA variant scans (doi:10.1093/nar/gkz1192)
# B1: CPEB3 Ribozyme (parent)
# chain: UAACAGGGGGCCACAGCAGAAGCGUUCACGUCGCAGCCCCUGUCAGAUUCUGGUGAAUCUGCGAAUUCUGCUGUAUAUCUC
# Variants of: B1
# Test: self-cleavage, relative activity (ratio to wild type); higher = more cleavage; in vitro, sequencing
# In short: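 Barcoded CPEB3 ribozyme mutants, produced by rounds of error-prone PCR, self-cleaved while being transcribed with T7 RNA polymerase for 5 hours at 37°C and during a subsequent 15 min DNase I step before EDTA was added. Sequencing of template-switched cDNA on Illumina gave cleaved and total reads, and DNA sequencing assigned barcodes to variants. Each variant's relative activity is its cleaved/total read fraction divided by the unmutated ribozyme's fraction, averaged across three batches. A variant needed a minimum of 5 reads.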
row,Variant,self-cleavage
1,A28C U48A,0.37
2,A28C G73U,0.55
3,C27A U78C,0.19
4,C27U U49C,0.15
5,C27U A64U,0.26
6,C27U A64G,0.24
7,A28C A35G,0.98
8,A28C A35C,0.4
9,A28C A35U,0.27
10,A28C G63U,0.41
11,C27G U49A,0.28
12,C27U U78G,0.38
13,C27U U78C,0.44
14,C27U U78A,0.16
15,C27U A47G,0.28
16,C27U A47U,0.44
17,C27U U60C,0.14
18,C27U U51A,0.17
19,C27A A65G,0.25
20,C27A U43A,0.39
21,C27A U43C,0.18

row,Variant,self-cleavage
1,A28C,0.56
2,C27U A56G,0.52
3,C27U A56U,0.21
4,C27G U80A,0.22
5,A28C A75G,0.49
6,C27U A28G,0.37
7,A28C G70A,0.27
8,A28C G70U,0.11
9,C27U C29A,0.15
10,C27A A45G,0.22
11,C27U G63A,0.22
12,C27G U76C,0.22
13,C27U U41A,0.2
14,C27U U41C,0.2
15,C27U U41G,0.11
16,A28C A65G,0.24
17,A28C A65U,0.3
18,C27G A35U,0.16
19,C27G C32U,0.17
20,C27A U60C,0.18
21,U26G U80C,0.51

row,Variant,self-cleavage
1,U26G U80A,0.35
2,C27A C50U,0.17
3,A28C G52U,0.64
4,C27A U80A,0.17
5,C27A U80C,0.66
6,C27A A35G,0.52
7,C27A C32U,0.3
8,A28C C62U,0.06
9,C27U G33U,0.34
10,C27U A45C,0.19
11,C27U A45G,0.17
12,C27A A28G,0.27
13,A28C U60A,0.4
14,A28C U60C,0.29
15,C27U U48C,0.18
16,A28C U69G,0.2
17,A28C U69C,0.19
18,A28C U69A,0.17
19,C27U U67C,0.16
20,C27U U72C,0.24
21,C27U U72A,0.18

row,Variant,self-cleavage
1,C27A C39A,0.2
2,C27U C37U,0.2
3,A28C C38U,0.41
4,A28C C38G,0.19
5,A28C G61U,0.2
6,A28C G61A,0.48
7,A28C G61C,0.19
8,C27G C29U,0.29
9,C27U A65G,0.24
10,C27U A65C,0.1
11,C27U A65U,0.14
12,C27A U74C,0.19
13,C27G U41C,0.18
14,C27G A75G,0.3
15,C27A U72C,0.19
16,C27A C59A,0.11
17,C27U C38U,0.32
18,A28C A64G,0.52
19,C27A U48C,0.11
20,A28C U49C,0.21
21,A28C U49A,0.26
